Data reported in PMC8534003 (2021).
Where no end group is shown, it is not given here. The star is where a group is joined. Biotin = O=C1N[C@H]2[C@H](CS[C@H]2CCCCC(=O)*)N1

Target: human recombinant FGF-2 (human, UniProt P09038 143-288)
Sequence (P09038 143-288): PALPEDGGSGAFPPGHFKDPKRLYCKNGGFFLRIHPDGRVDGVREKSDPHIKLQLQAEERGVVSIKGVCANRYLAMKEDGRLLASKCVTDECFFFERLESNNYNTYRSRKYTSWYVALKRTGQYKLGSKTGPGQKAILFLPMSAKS

koff: 0.00207 s⁻¹
Binder: Biotin-KKKQKNGKKHQKKKVLKVRKSQRSRQKKTT [biotinylated CXCL9(74-103)]
